Measurements reported in patent publication US12441803B2, “Engineered CD25 polypeptides and uses thereof” (iBio, Inc., priority 2018, dated 2025).
Numbering of substitutions follows the chain as printed.

T1: CD25 (Homo sapiens, UniProt P01589)
T1 sequence (P01589 22-272): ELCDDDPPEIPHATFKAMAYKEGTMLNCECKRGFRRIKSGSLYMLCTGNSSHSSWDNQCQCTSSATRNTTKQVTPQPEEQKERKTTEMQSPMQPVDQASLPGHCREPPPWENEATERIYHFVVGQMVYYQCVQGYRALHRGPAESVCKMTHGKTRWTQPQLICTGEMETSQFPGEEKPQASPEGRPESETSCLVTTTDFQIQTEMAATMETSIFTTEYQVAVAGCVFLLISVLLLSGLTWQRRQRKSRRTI

B1: YU397-D01: anti-CD25 scFv clone, SEQ ID NO: 817 (protein, listed as Mus musculus)
scFv: PSGTLSLTCAVSGGSISSSNWWSWVRQPPGKGLEWIGEIYHSGSTNYNPSLKSRVTISVDKSKNQFSLKLSSVTAADTAVYYCARARGGRYFDYWGQGTLVTVSSCARARGGRYFDYWDIVLTQSPSFLSASVGDRVTITCRASQGISTYLAWYQQKPGTAPKVLMYAASTLHSGVPSRFSGSGSGTEFTLTISSLQPEDFAIYYCQQLNGYPTTFGGGTRVEIKCQQLNGYPTTF
B2: YU390-A11: anti-CD25 scFv clone, SEQ ID NO: 736 (protein, listed as Mus musculus)
scFv: PGRSLRLSCAASGFTFSSYGMHWVRQAPGKGLEWVAVISYDGSNKYYADSVKGRFTISRDNSKNTLYLQMNSLRAEDTAVYYCAKELLEGAFDIWGQGTMVTVSSCAKELLEGAFDIWSYVLTQPPSLSVAPGQTARITCGGDNIETKSVHWYQQRPGQAPVLVVYDDDDRPSGIPERFSGSNSGNTATLTISRVEAGDEADYYCQVWDSSSGHREVFGGRTKPALLCQVWDSSSGHREVF
B3: YU390-B12: anti-CD25 scFv clone, SEQ ID NO: 738 (protein, listed as Mus musculus)
scFv: B2 scFv with R221G, P224L, A225T, L226V
B4: YU392-A09: anti-CD25 scFv clone, SEQ ID NO: 749 (protein, listed as Mus musculus)
scFv: PGATVKISCKVSGYTFTDYYMHWVQQAPGKGLEWMGLVDPEDGETIYAEKFQGRVTITADTSTDTAYMELSSLRSEDTAVYYCATEGRYGMDVWGQGTTVTVSSCATEGRYGMDVWQAVLTQPPSVSGTPGQRVTISCSGNNFNIGNNLVYWYQQLPGTAPKLLIYANDERPSGVPDRFSGSKSGTSASLAISGLRSEDDADYYCATWDDSLSGVVFGGGTKLTALCATWDDSLSGVVF
B5: YU389-A03: anti-CD25 scFv clone, SEQ ID NO: 730 (protein, listed as Mus musculus)
scFv: PSQTLSLTCTVSGGSISSGGYYWSWIRQHPGKGLEWIGYIYYSGSTYYNPSLKSRVTISVDTSKNQFSLKLSSVTAADTAVYYCARGNLWSGYYFWGQGTLVTVSSCARGNLWSGYYFWQSVLTQPPSVSAAPGQKVTISCSGSSSNIGNNFVSWYQQVPGTAPKLLTYDSTKRPAGIPDRFSGSKSGTSATLEIAGLQTGDEADYYCGSWDTNLSGYVFGTGTKVTVLCGSWDTNLSGYVF
B6: YU398-A11: anti-CD25 scFv clone, SEQ ID NO: 818 (protein, listed as Mus musculus)
scFv: PGRSLRLSCAASGFTFSSYGMHWVRQAPGKGLEWVAVISYDGSNKYYADSVKGRFTISRDNSKNTLYLQMNSLRAEDTAVYYCAKGQGDGMDVWGQGTTVTVSSCAKGQGDGMDVWYELTQPPSASGTPGQRVTISCSGSSSNVGSRTVSWFQQLPGTAPKLLIYSNNLRPSGVPDRFSGSKSGTSASLAISGLQSEDEADYYCAAWDDSLIGHVFGTGTKVTVVCAAWDDSLIGHVF
B7: YU401-B01: anti-CD25 scFv clone, SEQ ID NO: 827 (protein, listed as Mus musculus)
scFv: PGSSVKVSCKASGGTFSSYAISWVRQAPGQGLEWMGGIIPIFGTANYAQKFQGRVTITADESTSTAYMELSSLRSEDTAVYYCAREMYYYYGMDVWGQGTTVTVSSCAREMYYYYGMDVWDIVMTQSPSSLSASVGDRVTITCRASQSIITYLNWYQQKPGKVPKLLIYAASSLQSGVPSRFSGSGSGTDFTLTISSLQPEDFATYYCQQSYSTPPTFGQGTKLEIKCQQSYSTPPTF
B8: YU400-B07: anti-CD25 scFv clone, SEQ ID NO: 822 (protein, listed as Mus musculus)
scFv: PGRSLRLSCAASGFTFSSYGMHWVRQAPGKGLEWVAVISYDGSNKYYADSVKGRFTISRDNSKNTLYLQMNSLRAEDTAVYYCAKGDVNYGMDVWGQGTTVTVSSCAKGDVNYGMDVWSYVLTQPPSVSVAPGKTARITCGGNNIGSKSVHWYQQKPGQAPVLVVYDDTDRPSGIPERFSGSNSGNTATLTISRVEAGDEADYYCQVWDSSSDLLWVFGGGTKLAVLCQVWDSSSDLLWVF
B9: YU403-G05: anti-CD25 scFv clone, SEQ ID NO: 835 (protein, listed as Mus musculus)
scFv: PSGDLSLTCDVSGGSISRSNWWIWVRQPPGKGLEWIGEIYHTGSTNYNPSLKRRVTISVDKSKNQFSLNLSSVTAADTAVYYCARGKGSYAFDIWGLGTMVTVSSCARGKGSYAFDIWVLTQPHSVSESPGKTVTISCTGSGGNIARNYVQWYQHRPGRAPSTVIYEDDRRPSGVPDRFSGSTDISSNSASLTISGLKTEDEADYYCQSYDGNNHMVFGGGTRVTVLCQSYDGNNHMVF
B10: YU392-B11: anti-CD25 scFv clone, SEQ ID NO: 750 (protein, listed as Mus musculus)
scFv: PGATVKISCKVSGYTFTDYYMHWVQQAPGKGLEWMGLVDPEDGETIYAEKFQGRVTITADTSTDTAYMELSSLRSEDTAVYYCAVEGGRAPGTYYYDSSGLAYWGQGTLVTVSSCAVEGGRAPGTYYYDSSGLAYWQAGLTQPPSASGTPGQRVTISCSGSSSNIGSNYVYWYQQLPGTAPKLLIYSNNQRPSGVPDRFSGSKSGTSASLAISGLRSEDEADYYCATWDDSLSGVVFGGGTKLTVLCATWDDSLSGVVF
B11: YU400-D09: anti-CD25 scFv clone, SEQ ID NO: 823 (protein, listed as Mus musculus)
scFv: PGSSVKVSCKASGGTFSSYAISWVRQAPGQGLEWMGGIIPIFGTANYAQKFQGRVTITADESTSTAYMELSSLRSEDTAVYYCARDFNPFSITIFEMDVWGQGTTVTVSSCARDFNPFSITIFEMDVWQSVLTQPPSVSAAPGQKVTISCSGSSSNIGNNYVSWYQQLPGTAPKLLIYDNNKRPSGIPDRFSGSKSGTSATLGITGLQTGDEADYYCGTWDSSLSALVFGGGTKLTVLCGTWDSSLSALVF
B12: YU401-G07: anti-CD25 scFv clone, SEQ ID NO: 831 (protein, listed as Mus musculus)
scFv: LGRSLRLSCAASGFTFSSYGMHWVRQAPGKGLEWVAVISYDGSNKYYADSVKGRFTISRDNSKNTLYLQMNSLRAEDTAVYYCAKGDVNYGMDVWGQGTTVTVSSCAKGDVNYGMDVWSYVLTQPPSVSVAPGQTARISCGGSNIGSKTVNWYRKKAGQAPVLVVYDGRDRPSGIPERFSGSNSGNAATLIISRVEVGDEADYYCQVWDTSGDLHWAFGGGTKLTVLCQVWDTSGDLHWAF

Target: T1, CD25
Test: Binding of human IgG1 format antibodies to CD25 by Octet
Conditions: read-out: Biosensor Measured CD25 Affinity
Description: Thirty antibodies were selected for additional testing as full-length immunoglobulins. The heavy and light chain sequences were cloned into human immunoglobulin G (IgG1) format and expressed and purified.

Kd	Molecule
3.86 nM	B1
13.3 nM	B2
13.7 nM	B3
12.4 nM	B4
9.55 nM	B5
12.1 nM	B6
70.4 nM	B7
57.8 nM	B8
31.9 nM	B9
65.6 nM	B10
54.6 nM	B11
15.3 nM	B12
